Test results published in paper PMC7693034, “Identification of Amino Acid Residues Responsible for C−H Activation in Type‐III Copper Enzymes by Generating Tyrosinase Activity in a Catechol Oxidase” (Angewandte Chemie (International Ed. in English), 2020).

Substrate: NCCc1ccc(O)cc1
Test: enzyme kinetics, monophenolase activity
Type: biochemical, Coreopsis grandiflora
Conditions: type-III copper enzyme
Text: enzyme kinetics, monophenolase activity on CgAUS (aurone synthase from Coreopsis grandiflora)

Row | Protein | Km [mM] | kcat [s⁻¹]
1 | CgAUS (aurone synthase from Coreopsis grandiflora) (Coreopsis grandiflora; C182S) (protein, recombinant from E. coli, purified to homogeneity) APITAPDITSICKDASSGIGNQEGAIRTRKCCPPSLGKKIKDFQFPNDKKVRMRWPAHKGTKKQVDDYRRAIAAMRALPDDDPRSFVSQAKIHCAYSNGGYTQVDSGFPDIDIQIHNSWLFFPFHRWYLYFYERILGSLIDEPNFALPYWKWDEPKGMPISNIFLGDASNPLYDQYRDANHIEDRIVDLDYDGKDKDIPDQQQVACNLSTVYRDLVRNGVDPTSFFGGKYVAGDSPVANGDPSVGSVEAGSHTAVHRWVGDPTQPNNEDMGNFYSAGYDPVFYIHHANVDRMWKLWKELRLPGHVDITDPDWLNASYVFYDENKDLVRVYNKDCVNLDKLKYNFIENSKEVFPWRNSRPPQRRKSAQVATTGDVKTVEQTKFPVRLNQIFKVRVKRPAVNRTEEEKDQANEVLLIKKIKYDSGKFVKFDVFVNDKLKDGVFTTPCDPEYAGGFAQIPHNDKRSMVMTSTARFGLNELLEDTNTEGEEYATVTLVPRTGCEDLTVGEIKIELVPIPKA | 3.59 ± 0.33 | 0.55 ± 0.04
2 | CgAUS (aurone synthase from Coreopsis grandiflora) (Coreopsis grandiflora; R342D/T338D) (protein, recombinant from E. coli, purified to homogeneity) APITAPDITSICKDASSGIGNQEGAIRTRKCCPPSLGKKIKDFQFPNDKKVRMRWPAHKGTKKQVDDYRRAIAAMRALPDDDPRSFVSQAKIHCAYCNGGYTQVDSGFPDIDIQIHNSWLFFPFHRWYLYFYERILGSLIDEPNFALPYWKWDEPKGMPISNIFLGDASNPLYDQYRDANHIEDRIVDLDYDGKDKDIPDQQQVACNLSTVYRDLVRNGVDPTSFFGGKYVAGDSPVANGDPSVGSVEAGSHDAVHDWVGDPTQPNNEDMGNFYSAGYDPVFYIHHANVDRMWKLWKELRLPGHVDITDPDWLNASYVFYDENKDLVRVYNKDCVNLDKLKYNFIENSKEVFPWRNSRPPQRRKSAQVATTGDVKTVEQTKFPVRLNQIFKVRVKRPAVNRTEEEKDQANEVLLIKKIKYDSGKFVKFDVFVNDKLKDGVFTTPCDPEYAGGFAQIPHNDKRSMVMTSTARFGLNELLEDTNTEGEEYATVTLVPRTGCEDLTVGEIKIELVPIPKA | 1.09 ± 0.09 | 9.48 ± 0.55
3 | CgAUS (aurone synthase from Coreopsis grandiflora) (Coreopsis grandiflora; T338D) (protein, recombinant from E. coli, purified to homogeneity) APITAPDITSICKDASSGIGNQEGAIRTRKCCPPSLGKKIKDFQFPNDKKVRMRWPAHKGTKKQVDDYRRAIAAMRALPDDDPRSFVSQAKIHCAYCNGGYTQVDSGFPDIDIQIHNSWLFFPFHRWYLYFYERILGSLIDEPNFALPYWKWDEPKGMPISNIFLGDASNPLYDQYRDANHIEDRIVDLDYDGKDKDIPDQQQVACNLSTVYRDLVRNGVDPTSFFGGKYVAGDSPVANGDPSVGSVEAGSHDAVHRWVGDPTQPNNEDMGNFYSAGYDPVFYIHHANVDRMWKLWKELRLPGHVDITDPDWLNASYVFYDENKDLVRVYNKDCVNLDKLKYNFIENSKEVFPWRNSRPPQRRKSAQVATTGDVKTVEQTKFPVRLNQIFKVRVKRPAVNRTEEEKDQANEVLLIKKIKYDSGKFVKFDVFVNDKLKDGVFTTPCDPEYAGGFAQIPHNDKRSMVMTSTARFGLNELLEDTNTEGEEYATVTLVPRTGCEDLTVGEIKIELVPIPKA | 30.9 ± 7.27 | 2.14 ± 0.16
4 | CgAUS (aurone synthase from Coreopsis grandiflora) (Coreopsis grandiflora; R342D) (protein, recombinant from E. coli, purified to homogeneity) APITAPDITSICKDASSGIGNQEGAIRTRKCCPPSLGKKIKDFQFPNDKKVRMRWPAHKGTKKQVDDYRRAIAAMRALPDDDPRSFVSQAKIHCAYCNGGYTQVDSGFPDIDIQIHNSWLFFPFHRWYLYFYERILGSLIDEPNFALPYWKWDEPKGMPISNIFLGDASNPLYDQYRDANHIEDRIVDLDYDGKDKDIPDQQQVACNLSTVYRDLVRNGVDPTSFFGGKYVAGDSPVANGDPSVGSVEAGSHTAVHDWVGDPTQPNNEDMGNFYSAGYDPVFYIHHANVDRMWKLWKELRLPGHVDITDPDWLNASYVFYDENKDLVRVYNKDCVNLDKLKYNFIENSKEVFPWRNSRPPQRRKSAQVATTGDVKTVEQTKFPVRLNQIFKVRVKRPAVNRTEEEKDQANEVLLIKKIKYDSGKFVKFDVFVNDKLKDGVFTTPCDPEYAGGFAQIPHNDKRSMVMTSTARFGLNELLEDTNTEGEEYATVTLVPRTGCEDLTVGEIKIELVPIPKA | 4.01 ± 0.29 | 8.26 ± 0.48
5 | CgAUS (aurone synthase from Coreopsis grandiflora) (Coreopsis grandiflora; C182S/R342D/T338D) (protein, recombinant from E. coli, purified to homogeneity) APITAPDITSICKDASSGIGNQEGAIRTRKCCPPSLGKKIKDFQFPNDKKVRMRWPAHKGTKKQVDDYRRAIAAMRALPDDDPRSFVSQAKIHCAYSNGGYTQVDSGFPDIDIQIHNSWLFFPFHRWYLYFYERILGSLIDEPNFALPYWKWDEPKGMPISNIFLGDASNPLYDQYRDANHIEDRIVDLDYDGKDKDIPDQQQVACNLSTVYRDLVRNGVDPTSFFGGKYVAGDSPVANGDPSVGSVEAGSHDAVHDWVGDPTQPNNEDMGNFYSAGYDPVFYIHHANVDRMWKLWKELRLPGHVDITDPDWLNASYVFYDENKDLVRVYNKDCVNLDKLKYNFIENSKEVFPWRNSRPPQRRKSAQVATTGDVKTVEQTKFPVRLNQIFKVRVKRPAVNRTEEEKDQANEVLLIKKIKYDSGKFVKFDVFVNDKLKDGVFTTPCDPEYAGGFAQIPHNDKRSMVMTSTARFGLNELLEDTNTEGEEYATVTLVPRTGCEDLTVGEIKIELVPIPKA | 0.02 ± 0.00 | 6.52 ± 0.39
